From US20190247546A1, “METHOD FOR FORMING A FUNCTIONAL NETWORK OF HUMAN NEURONAL AND GLIAL CELLS” (LEIBNIZ-INSTITUT FÜR POLYMERFORSCHUNG DRESDEN E.V., priority 2016, published 2019)
Entries after “also recorded” stand apart in the source; their conditions may differ.

Experiments:
[1] = system: cells embedded in PEG-heparin hydrogel, transfected with calcium sensor; assay: Response to neurotransmitter glutamate, calcium sensor fluorescence in hydrogel-embedded cells; assay type: cell-based, human; conditions: after addition of glutamate
Source text: FIG. 5 depicts the results of the measurement of the total fluorescence intensities in the case of addition of the neurotransmitter glutamate. […] The cells in image A2 are embedded in a PEG-heparin hydrogel system before the addition of the neurotransmitter glutamate. Images A3 and A4 show a high magnification of a Gcampf6-transfected cell which is embedded in the PEG-heparin hydrogel system.

[2] = system: primary human cortical cells (PHCCs); assay: Aβ42 neurotoxicity model, PHCCs in 3D star-PEG-heparin hydrogel; assay type: cell-based
Protocol: FIG. 11 contains a graphic depiction of the preparation of the PEG-heparin hydrogel for the investigation of the effect of amyloid β 42 peptides (Aβ42) in primary human cortical cells. Cells of the second passage were placed into a Petri dish in a density of 5×10^3 per cm^2 in step 1. For the purposes of the Aβ42 neurotoxicity model, cells of the second passage were likewise placed in a Petri dish in a density of 5×10^3/cm^2 and incubated for 48 hours with 2 μM Aβ42 (step 1′).
After 48 hours, the cells were harvested and resuspended in phosphate-buffered saline solution (PBS) at a concentration of 8×10^6 cells per ml in a step 2. Then, the same volume of heparin solution (45 μg/μl in PBS) was added and the two were mixed to give a final concentration of 4×10^6 cells/ml in a step 3. In the case of the coating of the extracellular environment of the cells embedded in the PEG-heparin hydrogel system with […], a mixture of Aβ42 peptide in a concentration of 40 μM was added in step 3′.
To cast a gel, the cell solution, PBS and heparin in step 3 were mixed with the same volume of star-PEG. […] The reactions for gel formation last two minutes. After the casting, the gels were placed into 24-well culture plates, with each well containing a culture medium. To culture and to incubate the gels, a ratio of 5% CO2/95% air at 37° C. was used. Gels can be cultured until the desired time point.
Amyloid β 42 peptide, a misfolded protein relevant to Alzheimer's disease, was also used in order to model its toxicity and its effects on neuronal networks. The method according to the invention using a three-dimensional hydrogel system for culturing can, in this way, also be used as a model for neurodegenerative diseases. […] To investigate whether amyloid β 42 (Aβ42) influences the neuronal network, cultures were generated by treating the cells with Aβ42 before introduction into the hydrogel system (intracellular Aβ42) or incubating the hydrogels with Aβ42 before introduction of the cells (extracellular Aβ42). […] Furthermore, the three-dimensional hydrogel system can be used as a practical screening platform for testing compounds which might restore the neurogenic capacity of human stem cells and the formation of neuronal networks even in the presence of Aβ42.
To use gels which were pretreated with amyloid β 42 (Aβ42), the cells were incubated with 2 μM Aβ42 for 48 hours prior to the cell collection from the culture vessel and prior to the embedding of the cells in the hydrogel. To generate a gel environment which contains Aβ42, the cells were first dissolved in 4 μl of 100 μM Aβ42 peptide in PBS. 6 μl of the heparin solution (0.448 mg of HEP-HM6 dissolved in 6 μl of PBS) and 10 μl of the starPEG-MMP solution (0.347 mg of starPEG-MMP dissolved in 10 μl of PBS) were added and, as described above, mixed. In this gel mixture, the concentration of Aβ42 is 20 μM and the concentration of the cells is 2×10^6 cells per ml.
To use gels which were pretreated with amyloid β 42 (Aβ42), the cells were incubated with 2 μM Aβ42 for 48 hours prior to the cell collection from the culture vessel and prior to the embedding of the cells in the hydrogel.
All hydrogels were fixed with ice-cold paraformaldehyde and incubated at room temperature for 1.5 h, followed by a wash in PBS overnight at 4° C. […]
For the hydrogels, fluorescence recordings were carried out using a Leica SP5 inverted confocal and multiphoton microscope. […]

[3] = system: primary human cortical cells (PHCCs); assay: Effect of IL-4 on Aβ42 toxicity, PHCCs in star-PEG-HEP hydrogels; assay type: cell-based
Protocol: To test whether IL-4 acts in humans in a similar manner as could be previously shown in zebrafish investigations for example, the abovementioned star-PEG-HEP hydrogels containing PHCCs were used. To this end, hydrogels containing embedded PHCCs were prepared and they were incubated with Aβ42, as already described. Each test setup contained a positive (with Aβ42) and a negative control group (without Aβ42) as well as an experimental group with Aβ42 and IL-4. In the experimental group, the star-PEG-HEP gels containing embedded PHCCs were cultured with Aβ42 and, at the same time, in the presence of 100 ng/ml IL-4 in the medium. After a three-week culturing phase, the samples were fixed and immunologically stained with respect to GFAP and SOX2 in order to investigate effects of IL-4 on the neural stem and progenitor cells. The nucleus dye DAPI was used in order to show entire cells. […] It can be concluded that the treatment with interleukin 4 stimulates GFAP-positive cells in relation to proliferation to form more neuronal stem and progenitor cells. IL-4 thus increases the neuroplasticity of the embedded PHCCs despite the presence of neurotoxic Aβ42. […] IL-4 is thus an important candidate for future therapies against Aβ42-mediated neurodegeneration.

[4] = Aβ42-treated gels compared with control gels

N[C@@H](CCC(=O)O)C(=O)O [glutamate]
fluorescence signal of calcium sensor (intracellular calcium influx) [1]: increased fluorescence signal; also recorded: increase in the intracellular calcium level

Aβ42: Amyloid β 42 peptide, a misfolded protein relevant to Alzheimer's disease
number of branches per network [2, 4]: significantly lower
number of cells [2, 4]: significantly reduced
number of networks [2, 4]: significantly reduced
effect on axons ([2]; Aβ42 treatment): dystrophy of axons
neuronal network formation ([2]; intracellular and extracellular Aβ42, compared with control gels): significant impairment
cell count (GFAP-positive and SOX2-positive cells) ([3]; Aβ42-treated cultures vs untreated control, three-week culture): strong decline

B1: IL-4: interleukin 4 (protein, UniProt P05112 25-153, looked up)
Interleukin-4: HKCDITLQEIIKTLNSLTEQKTLCTELTVTDIFAASKNTTEKETFCRAATVLRQFYSHHEKDTRCLGATAQQFHRHKQLIRFLKRLDRNLWGLAGLNSCPVKEANQSTLENFLERLKTIMREKYSKCSS
proliferation of human neuronal stem cells ([3]; Aβ42 plus 100 ng/ml IL-4): activates the proliferation
cell count ([3]; Aβ42 plus 100 ng/ml IL-4 in the medium, three-week culture): altogether comparable with the control cultures without Aβ42 treatment
